Literature values, collected in PMC8557391.

Target: Keap1 (Homo sapiens) (UniProt Q14145)
Assay: FP

Sequence of UniProt Q14145 (Q14145 whole entry): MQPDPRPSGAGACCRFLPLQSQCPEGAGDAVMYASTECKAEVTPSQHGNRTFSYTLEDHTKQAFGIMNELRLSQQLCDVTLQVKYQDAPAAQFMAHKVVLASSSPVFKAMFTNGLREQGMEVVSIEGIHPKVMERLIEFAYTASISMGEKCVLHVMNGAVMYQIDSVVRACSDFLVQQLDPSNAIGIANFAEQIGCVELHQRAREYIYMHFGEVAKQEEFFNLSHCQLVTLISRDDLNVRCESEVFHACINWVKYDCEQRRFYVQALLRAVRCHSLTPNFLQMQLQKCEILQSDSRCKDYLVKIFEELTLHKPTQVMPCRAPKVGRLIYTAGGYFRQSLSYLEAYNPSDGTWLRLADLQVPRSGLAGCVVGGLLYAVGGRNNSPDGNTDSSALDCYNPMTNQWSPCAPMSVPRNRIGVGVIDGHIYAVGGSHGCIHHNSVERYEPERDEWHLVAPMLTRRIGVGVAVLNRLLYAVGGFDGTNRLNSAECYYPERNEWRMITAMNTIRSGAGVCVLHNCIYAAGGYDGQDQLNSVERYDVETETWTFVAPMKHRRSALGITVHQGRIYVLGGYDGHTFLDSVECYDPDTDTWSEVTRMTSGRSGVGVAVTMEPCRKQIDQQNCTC

Kd | Substance
54 nM | Nrf2 9mer peptide (from UniProt Q16236)
51 nM | Nrf2 10mer peptide (from UniProt Q16236)
